The source of these data is publication PMC3421062.

Assay [1] deals with N130-V5 recombinant protein (NAC1 BTB domain only) (UniProt Q96RE7). The experiment in a line: pull-down.
Assay [2] deals with NAC1-V5 recombinant protein (UniProt Q96RE7). The experiment in a line: pull-down.

For “purified recombinant actin (Cytoskeleton Inc.) (from UniProt P60709 1-375) (natural protein)”, the results for the Kd in assay [1] and in assay [2] were 0.52 µM and 0.78 µM, respectively.
